Experimental data published in publication PMC10490071.

Key:
Experiment in all cases: SEC-MALS + native gel or EMSA; static light scattering (DynaPro, Wyatt) after Superdex 200, 100 uL at >1 mg/mL in 10 mM PBS pH 7.4, flow 0.45 mL/min, LS, UV and dRI detection; 10% native-PAGE, 1 umol protein loaded; oligomeric state in solution
[1] = target: rFIP-nha N39A glycosylation mutant, expressed in P. pastoris (Nectria haematococca)
[2] = target: rFIP-nha N5A glycosylation mutant, expressed in P. pastoris (Nectria haematococca)
[3] = target: rFIP-nha N5+39A double glycosylation mutant, expressed in P. pastoris (Nectria haematococca)
[4] = target: rFIP-nha wild-type (fungal immunomodulatory protein from Nectria haematococca), expressed in P. pastoris (Nectria haematococca)

rFIP-nha N39A glycosylation mutant, expressed in P. pastoris (natural protein)
stoichiometry N [1]: 4

rFIP-nha N5A glycosylation mutant, expressed in P. pastoris (natural protein)
stoichiometry N [2]: 4

rFIP-nha N5+39A double glycosylation mutant, expressed in P. pastoris (natural protein)
stoichiometry N [3]: 4

rFIP-nha wild-type (fungal immunomodulatory protein from Nectria haematococca), expressed in P. pastoris (natural protein)
stoichiometry N [4]: 4
